Test results published in patent US20030139361A1, “Drug for gene therapy” (priority 2000, published 2003).

Columns and labels:
[1] = test system: liver graft, DA rat to LEW rat (acute rejection); test: Immunosuppressive activity of the IDO protein using acute rejection model (sympatric liver transplantation, DA rat to LEW rat); format: in vivo; settings: for average days of take (survival): consecutive days through the tail vein after liver transplantation, N = 6
Experimental: As for the animals, male LEW and DA rats (200-350 g) were used. In the administration of the aforementioned gene therapeutic agents, immediately after Ringer's Solution (Fuso Pharmaceutical Co. Ltd.) was used in the operation and was allowed to perfuse the portal veins and the liver, the respective agents were infused from the portal veins into the liver at a speed of 5 ml/min. After allowing to stand in the culture solution for 30 minutes, the liver into which the gene had been transferred was grafted to the LEW rat.
A model similar to that in Example 2 was used to judge the therapeutic effect of the IDO protein prepared in Example 5. The IDO protein was administered consecutive days through the tail vein immediately after the liver transplantation at a dosage of 300 μg/rat.

[2] = test system: spleen cells derived from PVG rat and mitomycin-treated DA rat; test: Lymphocyte mixed culture test (BrdU incorporation); format: cell-based; settings: 4 days culture, BrdU 10 μM for last 16 hours; FIG. 2
Experimental: To study the immunosuppressive activity of the human IDO protein prepared in Example 10, a lymphocyte mixed culture test was carried out. The spleen cells derived from a non-treated PVG rat and the spleen cells derived from a DA rat treated with 25 μg/ml of mitomycin (SIGMA-Aldrich Corporation) were seeded on a U bottom 96-well plate (NUNC Inc.) at 5×10^4/well and at 8×10^6/well, respectively. The IDO protein was then added and culturing was done for 4 days. Sixteen hours before the finish of culturing 5-bromo-2′deoxyuridine (BrdU) was added at a final concentration of 10 μM. The amount of BrdU incorporated into the intracellular DNA was quantified using a BrdU Labeling & Detection Kit III (Roche Diagnostics Inc.).

B1: IDO protein: Recombinant murine indoleamine 2,3-dioxygenase protein prepared in Example 5 from E. coli (protein, UniProt P28776 1-407, looked up)
Indoleamine 2,3-dioxygenase 1: MALSKISPTEGSRRILEDHHIDEDVGFALPHPLVELPDAYSPWVLVARNLPVLIENGQLREEVEKLPTLSTDGLRGHRLQRLAHLALGYITMAYVWNRGDDDVRKVLPRNIAVPYCELSEKLGLPPILSYADCVLANWKKKDPNGPMTYENMDILFSFPGGDCDKGFFLVSLLVEIAASPAIKAIPTVSSAVERQDLKALEKALHDIATSLEKAKEIFKRMRDFVDPDTFFHVLRIYLSGWKCSSKLPEGLLYEGVWDTPKMFSGGSAGQSSIFQSLDVLLGIKHEAGKESPAEFLQEMREYMPPAHRNFLFFLESAPPVREFVISRHNEDLTKAYNECVNGLVSVRKFHLAIVDTYIMKPSKKKPTDGDKSEEPSNVESRGTGGTNPMTFLRSVKDTTEKALLSWP
modifications: recombinant, E. coli
[1]; 50 μg/rat
  average days of take (survival): 10.6 days
[1]; 300 μg/rat
  average days of take (survival): >30 days
[1]; 300 μg/rat, tail vein, consecutive days
  days of take of the liver graft (in words): marked increase
[2]
  immunosuppressive activity (amount of BrdU incorporated into intracellular DNA): immunosuppressive effect was observed
